{"source": "patent US20230406921A1", "key": {"[1]": {"target": "CD47 on the surface of tumor cells (human) (UniProt Q08722)", "test": "FACS, SKOV-3 tumor cells, control antibody, 100 nM"}, "[2]": {"target": "CD47 on the surface of human red blood cells (human) (UniProt Q08722)", "test": "FACS, human red blood cells, control antibody, 1000 nM"}}}
{"substance": "human IgG4 (antibody)", "values": [{"measurement": "Binding to tumor cells (MFI)", "setting": "[1]", "value": 4640, "unit": "MFI"}, {"measurement": "Binding to human red blood cells (MFI)", "setting": "[2]", "value": 797, "unit": "MFI"}]}
